Four compounds from patent US7645583B2, “Identification of compounds for inhibiting complexation of C-reactive protein with fibronectin” (Kimberly-Clark Worldwide, Inc., priority 2005, dated 2010) can be followed below.

In the assay the target is CRP/Fn binding (CRP captured on immobilized CRP antibody, Fn injected) (Homo sapiens, UniProt P02741+P02751). Description: SPR (Biacore X) in vitro model of the inhibitory effect of test compounds on CRP/Fn binding. On the set-up: 10 μL of CRP antigen 6 (50 μg/mL) was injected in flow channel 2. Conditions: for inhibitory effect on CRP/Fn binding (in words): at the conditions of Table 3; for SPR Response (RU): control without inhibitor 118 RU. The method, then:
An in vitro model was designed to determine inhibitory effect of several different test compounds on CRP/Fn binding. Surface plasmon resonance (SPR) measurements were performed using a Biacore® X system and amine coupling kit for immobilization. […] All experiments were performed at 25° C., unless otherwise specified. The SPR technology used is based on optical phenomena in which the measured response depends on a change in refractive index in the close vicinity of the sensor chip surface. The response in such systems is proportional to the mass of analyte bound to the surface. The SPR method was used to monitor continuous analysis over the course of the interaction. […] (catalog number A58110228P), which specifically binds to calcium/phosphocholine site of CRP, was immobilized on a surface of a sensor chip 23 (CM5, carboxyl functionalized) via amine coupling chemistry as is generally known in the art. Following immobilization of the antibody to the surface of the chip 23, 10 μL of CRP antigen 6 (50 μg/mL) was injected in flow channel 2. Following this injection, 60 μL of an Fn solution 8 was injected into both flow channel 1 and flow channel 2 for two minutes duration (association phase), followed by 2 minutes delay time (dissociation phase). […] The process was repeated with an Fn solution including no inhibitor material as a control as well as several Fn solutions including various inhibitor compounds as herein described. Fn concentration was 1 mg/mL in all solutions.
On the technique in general: Surface plasmon resonance follows binding to a sensor surface in real time, without labels.

Setting [1] is: inhibitor 50 μM, Fn 1 mg/mL, 25° C.
[2] abbreviates: inhibitor 50 μM, Fn 1 mg/mL, 25° C., relative to control without inhibitor.

A word on the % Inhibition: it is how much of the control response was suppressed. As usually defined, the inhibition is how much of the control response was suppressed. Read a high inhibition as a response far below the control.

Chain of CRP/Fn binding (CRP captured on immobilized CRP antibody, Fn injected) (P02741 19-224): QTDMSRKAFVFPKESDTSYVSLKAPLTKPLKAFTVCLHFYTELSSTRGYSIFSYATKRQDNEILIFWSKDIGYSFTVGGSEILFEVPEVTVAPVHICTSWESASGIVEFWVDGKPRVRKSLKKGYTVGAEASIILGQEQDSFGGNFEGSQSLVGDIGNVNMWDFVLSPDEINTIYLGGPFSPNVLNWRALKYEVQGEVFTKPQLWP
Chain of CRP/Fn binding (CRP captured on immobilized CRP antibody, Fn injected) (P02751 32-2477): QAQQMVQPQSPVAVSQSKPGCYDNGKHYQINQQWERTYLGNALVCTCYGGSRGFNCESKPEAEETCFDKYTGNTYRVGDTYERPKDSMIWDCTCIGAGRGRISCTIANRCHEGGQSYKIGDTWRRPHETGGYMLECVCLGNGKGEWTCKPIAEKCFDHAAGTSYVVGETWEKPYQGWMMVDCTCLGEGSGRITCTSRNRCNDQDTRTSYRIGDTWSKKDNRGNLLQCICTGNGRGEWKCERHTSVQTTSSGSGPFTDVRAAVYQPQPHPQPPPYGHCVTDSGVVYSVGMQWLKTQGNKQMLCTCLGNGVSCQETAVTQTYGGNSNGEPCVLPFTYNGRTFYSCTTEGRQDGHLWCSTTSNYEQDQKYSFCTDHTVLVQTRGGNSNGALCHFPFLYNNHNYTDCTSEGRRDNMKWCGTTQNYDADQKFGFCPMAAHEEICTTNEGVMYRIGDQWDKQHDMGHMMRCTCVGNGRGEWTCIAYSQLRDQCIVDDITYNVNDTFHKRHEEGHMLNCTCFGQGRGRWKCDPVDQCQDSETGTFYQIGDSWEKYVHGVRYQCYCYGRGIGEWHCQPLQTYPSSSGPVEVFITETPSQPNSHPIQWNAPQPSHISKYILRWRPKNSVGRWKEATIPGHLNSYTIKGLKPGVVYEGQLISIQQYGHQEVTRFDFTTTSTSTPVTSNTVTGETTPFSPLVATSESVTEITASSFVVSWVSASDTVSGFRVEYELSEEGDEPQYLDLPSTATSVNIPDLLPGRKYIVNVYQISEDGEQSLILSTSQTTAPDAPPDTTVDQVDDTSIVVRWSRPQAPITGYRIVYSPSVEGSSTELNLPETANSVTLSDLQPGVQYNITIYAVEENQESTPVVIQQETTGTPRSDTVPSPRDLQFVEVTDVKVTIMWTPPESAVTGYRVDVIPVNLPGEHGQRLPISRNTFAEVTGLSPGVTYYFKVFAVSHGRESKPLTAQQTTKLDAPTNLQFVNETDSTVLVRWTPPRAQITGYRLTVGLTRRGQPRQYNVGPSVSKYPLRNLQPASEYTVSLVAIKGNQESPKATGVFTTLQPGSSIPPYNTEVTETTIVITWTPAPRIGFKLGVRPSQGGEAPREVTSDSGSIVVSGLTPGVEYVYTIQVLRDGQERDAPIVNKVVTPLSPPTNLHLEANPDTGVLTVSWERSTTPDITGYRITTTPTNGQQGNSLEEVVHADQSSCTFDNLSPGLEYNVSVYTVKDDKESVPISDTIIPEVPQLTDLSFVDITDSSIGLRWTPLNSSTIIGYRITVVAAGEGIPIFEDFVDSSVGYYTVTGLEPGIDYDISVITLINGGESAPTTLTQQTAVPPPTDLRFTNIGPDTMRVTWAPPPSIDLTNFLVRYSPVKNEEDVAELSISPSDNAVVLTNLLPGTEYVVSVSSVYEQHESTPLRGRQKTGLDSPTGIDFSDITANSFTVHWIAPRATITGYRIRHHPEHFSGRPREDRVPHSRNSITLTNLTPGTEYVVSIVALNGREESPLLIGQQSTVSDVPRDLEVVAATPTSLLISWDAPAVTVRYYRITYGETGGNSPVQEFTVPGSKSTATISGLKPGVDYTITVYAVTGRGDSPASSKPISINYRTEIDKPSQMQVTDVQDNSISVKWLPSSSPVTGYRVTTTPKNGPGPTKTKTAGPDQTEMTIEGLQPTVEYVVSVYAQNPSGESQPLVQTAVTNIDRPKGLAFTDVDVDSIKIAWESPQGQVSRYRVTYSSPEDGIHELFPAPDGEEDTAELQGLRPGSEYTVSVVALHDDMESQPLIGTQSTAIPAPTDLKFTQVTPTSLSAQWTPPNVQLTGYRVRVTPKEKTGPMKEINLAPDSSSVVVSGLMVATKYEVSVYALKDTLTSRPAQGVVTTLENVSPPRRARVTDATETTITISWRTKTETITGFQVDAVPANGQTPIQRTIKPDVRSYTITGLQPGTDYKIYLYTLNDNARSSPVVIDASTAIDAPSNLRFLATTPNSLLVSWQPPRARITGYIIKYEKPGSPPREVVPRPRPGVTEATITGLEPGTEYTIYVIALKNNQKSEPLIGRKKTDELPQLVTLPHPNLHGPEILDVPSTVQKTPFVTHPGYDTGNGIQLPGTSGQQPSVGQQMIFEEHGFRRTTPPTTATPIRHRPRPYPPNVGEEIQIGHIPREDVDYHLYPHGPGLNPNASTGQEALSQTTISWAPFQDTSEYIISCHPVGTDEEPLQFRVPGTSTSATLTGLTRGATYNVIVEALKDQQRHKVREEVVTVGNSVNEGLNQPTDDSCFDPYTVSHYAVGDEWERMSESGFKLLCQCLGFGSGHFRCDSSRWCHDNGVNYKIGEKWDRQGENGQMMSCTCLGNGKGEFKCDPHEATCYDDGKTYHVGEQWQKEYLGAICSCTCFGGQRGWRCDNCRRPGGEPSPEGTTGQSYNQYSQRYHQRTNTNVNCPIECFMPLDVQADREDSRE

Turning to “9-mer: 9 mer segment of SEQ ID NO.:11, specifically the first nine amino acids of SEQ ID NO.:11 (PRCGNPDVA; listed as Homo sapiens)”, the “inhibitory effect on CRP/Fn binding (in words)” value (shortened to “inhibitory effect”) is on record as “no significant effect”. Besides, the “SPR Response (RU)” value under setting [1] was 119 RU. The “% Inhibition” value under setting [2] is recorded as 0.0%.
The like results for “10-mer: 10-mer polypeptide of SEQ ID NO.:12, exemplary inhibitor of CRP/Fn complexation (NYNFFPRKPK; listed as Homo sapiens)” were, in that order, “somewhat less inhibitory effect”, 76 RU and 35.6%.
In the case of `C=C1C[C@]23C[C@@]1(O)CC[C@H]2[C@@]12C=C[C@H](O)[C@@](C)(C(=O)O1)[C@H]2[C@@H]3C(=O)O` [Gibberellic acid, gibberellic acid], the “inhibitory effect” value is “somewhat less inhibitory effect”. The “SPR Response (RU)” value (inhibitor 200 μM, Fn 1 mg/mL, 25° C.) came to 90 RU. Further, for the setting “inhibitor 200 μM, Fn 1 mg/mL, 25° C., relative to control without inhibitor”, the inhibition at 200 µM was 23.7%.
For the compound `CC/C=C\C[C@H]1C(=O)CC[C@@H]1CC(=O)O` [Jasmonic acid, jasmonic acid], the “inhibitory effect” value is recorded as “somewhat less inhibitory effect”. The “SPR Response (RU)” value (inhibitor 40 μM, Fn 1 mg/mL, 25° C.) is listed as 94 RU. For the same compound, where the note is “inhibitor 40 μM, Fn 1 mg/mL, 25° C., relative to control without inhibitor”, the “% Inhibition” value is 20.4%.
